We go through twelve molecules from US20120087858A1 (AbbVie / Abbott, published 2012).

One assay has as its target T1, Recombinant Human SOST (human, UniProt Q9BQB4 24-213).
T1 construct: Biacore reagent from R&D Systems; the Wnt-1/luciferase assay used Human Sclerostin (Abbott PR-1261069); also called Sclerostin; Human Sclerostin
T1 sequence (looked up): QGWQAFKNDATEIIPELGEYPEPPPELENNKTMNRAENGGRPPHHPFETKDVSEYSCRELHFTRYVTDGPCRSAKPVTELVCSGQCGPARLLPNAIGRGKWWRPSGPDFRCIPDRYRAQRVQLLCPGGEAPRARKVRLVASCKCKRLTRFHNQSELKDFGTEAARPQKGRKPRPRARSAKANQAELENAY
Kind of assay: Biacore SPR. On the procedure: (§1) The BIACORE assay (Biacore, Inc, Piscataway, N.J.) determines the affinity of antibodies or DVD-Ig with kinetic measurements of on-rate and off-rate constants. Binding of antibodies or DVD-Ig to a target antigen (for example, a purified recombinant target antigen) is determined by surface plasmon resonance-based measurements with a Biacore® 1000 or 3000 instrument (Biacore® AB, Uppsala, Sweden) using running HBS-EP (10 mM HEPES [pH 7.4], 150 mM NaCl, 3 mM EDTA, and 0.005% surfactant P20) at 25° C. All chemicals are obtained from Biacore® AB (Uppsala, Sweden) or otherwise from a different source as described in the text. For example, approximately 5000 RU of goat anti-mouse IgG, (Fcγ), fragment specific polyclonal antibody (Pierce Biotechnology Inc, Rockford, Ill.) diluted in 10 mM sodium acetate (pH 4.5) is directly immobilized across a CMS research grade biosensor chip using a standard amine coupling kit according to manufacturer's instructions and procedures at 25 μg/ml. Unreacted moieties on the biosensor surface are blocked with ethanolamine. Modified carboxymethyl dextran surface in flowcell 2 and 4 is used as a reaction surface. Unmodified carboxymethyl dextran without goat anti-mouse IgG in flow cell 1 and 3 is used as the reference surface. For kinetic analysis, rate equations derived from the 1:1 Langmuir binding model are fitted simultaneously to association and dissociation phases of all eight injections (using global fit analysis) with the use of Biaevaluation 4.0.1 software. Purified antibodies or DVD-Ig are diluted in HEPES-buffered saline for capture across goat anti-mouse IgG specific reaction surfaces. Antibodies or DVD-Ig to be captured as a ligand (25 μg/ml) are injected over reaction matrices at a flow rate of 5 μl/min. The association and dissociation rate constants, kₒₙ (M⁻¹s⁻) and koff(s⁻¹) are determined under a continuous flow rate of 25 μl/min. Rate constants are derived by making kinetic binding measurements at different antigen concentrations ranging from 10-200 nM. The equilibrium dissociation constant (M) of the reaction between antibodies or DVD-Igs and the target antigen is then calculated from the kinetic rate constants by the following formula: KD=koff/kₒₙ. Binding is recorded as a function of time and kinetic rate constants are calculated.
For orientation: SPR reads the build-up and loss of mass on a sensor chip optically.

The target in assay [1] is T2, Recombinant Human TNF-α/TNFSF1A (human, UniProt P01375 77-233). The experiment in a line: cell-based or functional assay.
Assay [2] deals with T2, Recombinant Human TNF-α/TNFSF1A. The experiment in a line: Biacore SPR. On the procedure:
as §1

What is called Kd is the concentration at which binding is half-saturated. The term koff denotes a measure of how fast the partners let go of each other. Usually kon stands for the rate constant with which the complex forms.

T2 sequence (P01375 77-233 limits assumed): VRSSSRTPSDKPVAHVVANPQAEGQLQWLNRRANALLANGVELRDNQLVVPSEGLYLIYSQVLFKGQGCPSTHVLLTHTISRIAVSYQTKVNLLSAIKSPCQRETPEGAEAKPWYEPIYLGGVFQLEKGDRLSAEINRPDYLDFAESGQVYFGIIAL

B1: AB022 (antibody, V domains shown)
VH: EVQLQQSGPELVTPGASVKISCKASGYTFTDHYMSWVKQSHGKSLEWIGDINPYSGETTYNQKFKGTATLTVDKSSSIAYMEIRGLTSEDSAVYYCARDDYDASPFAYWGQGTLVTVSA
VL: DVQMIQSPSSLSASLGDIVTMTCQASQGTSINLNWFQQKPGKAPKLLIYGSSNLEDGVPSRFSGSRYGTDFTLTISSLEDEDLATYFCLQHSYLPYTFGGGTKLEIKR
notes: Parent antibody; also called SOST parent antibody
As for B1, in the assay with Recombinant Human SOST, the dissociation constant Kd was determined as 0.0408 nM, the koff amounted to 0.000396 s⁻¹ and the kon came out at 9.68e+06 M⁻¹ s⁻¹.

B2: DVD1516 (bispecific antibody, human IgG1, kappa)
heavy: not shown
light: DVLMTQTPLSLPVTPGEPASISCTSSQNIVHSNGNTYLEWYLQKPGQSPQLLIYKVSNRFSGVPDRFSGSGSGTDFTLKISRVEAEDVGVYYCFQVSHVPYTFGGGTKVEIKRTVAAPDIQMTQSPSSLSASVGDRVTITCRASQGIRIDLGWYQQKPGKAPKRLIYAASTLQSGVPSRFSGSGSGTEFIFTISSLQPEDFASYYCLQHKSYPLTFGGGTKVEIKRTVAAPSVFIFPPSDEQLKSGTASVVCLLNNFYPREAKVQWKVDNALQSGNSQESVTEQDSKDSTYSLSSTLTLSKADYEKHKVYACEVTHQGLSSPVTKSFNRGEC
As for B2, in assay [1], the “TNFα Neutralization Assay EC50 (L929 cells)” value (shortened to “TNFα Neutralization Assay EC50”) is 8.71 nM.

B3: AB217 (antibody, V domains shown)
VH: QVQLVESGGGVVQPGRSLRLSCAASGFTFSSYDMHWVRQAPGKGLEWVAVIWSDGSIKYYADSVKGRFTISRDNSKNTLYLQMNSLRAEDTAVYYCAREVESAMGGFYYNGMDVWGQGTTVTVSS
VL: DIQMTQSPSSLSASVGDRVTITCRASQGIRIDLGWYQQKPGKAPKRLIYAASTLQSGVPSRFSGSGSGTEFIFTISSLQPEDFASYYCLQHKSYPLTFGGGTKVEIKR
notes: Parent antibody
As to B3, in assay [2], the Kd amounted to 0.0272 nM, the koff turned out to be 5.04e-05 s⁻¹ and the on-rate constant (kon) is 1.85e+06 M⁻¹ s⁻¹. The “TNFα Neutralization Assay EC50” value in assay [1] came to 0.0762 nM.

B4: AB218 (antibody, V domains shown)
VH: EVQLVESGGGLIQPGGSLRLSCAASGFTVSRNYMSWVRQAPGKGLEWVSVIYSGDRTYYADSVKGRFTISRDNSKNTLYLQMNSLRAEDTAVYYCARGEGGFDYWGQGTLVTVSS
VL: EIVMTQSPATLSVSPGERATLSCRASQSVSSNLAWYQQKPGQAPRLLIHGASIRATGLPARFSGSGSGTEFTLTISSLQSEDFAVYYCQQYNYWWTFGQGTKVEIKR
notes: Parent antibody
Regarding B4, in assay [2], the Kd worked out at 0.0288 nM, the koff was 5.15e-05 s⁻¹ and the kon came to 1.79e+06 M⁻¹ s⁻¹. Besides, the “TNFα Neutralization Assay EC50” value in assay [1] came out at 0.045 nM.

B5: DVD1507 (bispecific antibody, human IgG1, kappa)
heavy: not shown
light: DIVMTQSHKFMSTTVGDRVSITCKASQAVSSAVAWYQQKPGQSPKLLIYWASTRHTGVPDRFTGSGSVTDFTLTIHNLQAEDLALYYCQQHYSTPFTFGSGTKLEIKRTVAAPDVVMTQTPLSLPVSLGDQASISCTSGQSLVHINGNTYLHWYLQKPGQSPKLLIYKVSNLFSGVPDRFSGSGSGTDFTLKISRVEAEDLGVYFCSQSTHFPFTFGTGTKLEIKRTVAAPSVFIFPPSDEQLKSGTASVVCLLNNFYPREAKVQWKVDNALQSGNSQESVTEQDSKDSTYSLSSTLTLSKADYEKHKVYACEVTHQGLSSPVTKSFNRGEC
For the molecule B5, the “TNFα Neutralization Assay EC50” value in assay [1] came to 0.133 nM.

B6: AB213 (antibody, V domains shown)
VH: QVQLKESGPGLVAPSQSLSITCTVSGFSLTDYGVNWVRQPPGKGLEWLGMIWGDGSTDYDSTLKSRLSISKDNSKSQIFLKMNSLQTDDTARYYCAREWHHGPVAYWGQGTLVTVSA
VL: DIVMTQSHKFMSTTVGDRVSITCKASQAVSSAVAWYQQKPGQSPKLLIYWASTRHTGVPDRFTGSGSVTDFTLTIHNLQAEDLALYYCQQHYSTPFTFGSGTKLEIKR
notes: Parent antibody
Regarding B6, in assay [2], the dissociation constant Kd was found to be 0.0335 nM, the koff came to 0.000108 s⁻¹ and the kon stood at 3.23e+06 M⁻¹ s⁻¹. Besides, the “TNFα Neutralization Assay EC50” value in assay [1] was 0.124 nM.

B7: DVD1476 (bispecific antibody, human IgG1, kappa)
heavy: not shown
light: DVQMIQSPSSLSASLGDIVTMTCQASQGTSINLNWFQQKPGKAPKLLIYGSSNLEDGVPSRFSGSRYGTDFTLTISSLEDEDLATYFCLQHSYLPYTFGGGTKLEIKRTVAAPSVFIFPPDIQMTQSPSSLSASVGDRVTITCRASQGIRIDLGWYQQKPGKAPKRLIYAASTLQSGVPSRFSGSGSGTEFIFTISSLQPEDFASYYCLQHKSYPLTFGGGTKVEIKRTVAAPSVFIFPPSDEQLKSGTASVVCLLNNFYPREAKVQWKVDNALQSGNSQESVTEQDSKDSTYSLSSTLTLSKADYEKHKVYACEVTHQGLSSPVTKSFNRGEC
B7: the “TNFα Neutralization Assay EC50” value in assay [1] was 0.139 nM.

B8: DVD1518 (bispecific antibody, human IgG1, kappa)
heavy: not shown
light: DVQMIQSPSSLSASLGDIVTMTCQASQGTSINLNWFQQKPGKAPKLLIYGSSNLEDGVPSRFSGSRYGTDFTLTISSLEDEDLATYFCLQHSYLPYTFGGGTKLEIKRTVAAPDIQMTQSPSSLSASVGDRVTITCRASQGIRIDLGWYQQKPGKAPKRLIYAASTLQSGVPSRFSGSGSGTEFIFTISSLQPEDFASYYCLQHKSYPLTFGGGTKVEIKRTVAAPSVFIFPPSDEQLKSGTASVVCLLNNFYPREAKVQWKVDNALQSGNSQESVTEQDSKDSTYSLSSTLTLSKADYEKHKVYACEVTHQGLSSPVTKSFNRGEC
As for B8, the “TNFα Neutralization Assay EC50” value in assay [1] stood at 0.89 nM.

B9: DVD1448 (bispecific antibody, human IgG1, kappa)
heavy: not shown
light: DVLMTQTPLSLPVTPGEPASISCTSSQNIVHSNGNTYLEWYLQKPGQSPQLLIYKVSNRFSGVPDRFSGSGSGTDFTLKISRVEAEDVGVYYCFQVSHVPYTFGGGTKVEIKRTVAAPSVFIFPPDIVMTQSHKFMSTTVGDRVSITCKASQAVSSAVAWYQQKPGQSPKLLIYWASTRHTGVPDRFTGSGSVTDFTLTIHNLQAEDLALYYCQQHYSTPFTFGSGTKLEIKRTVAAPSVFIFPPSDEQLKSGTASVVCLLNNFYPREAKVQWKVDNALQSGNSQESVTEQDSKDSTYSLSSTLTLSKADYEKHKVYACEVTHQGLSSPVTKSFNRGEC
Regarding B9, the “TNFα Neutralization Assay EC50” value in assay [1] came to 1.39 nM.

B10: DVD1496 (bispecific antibody, human IgG1, kappa)
heavy: not shown
light: DVQMIQSPSSLSASLGDIVTMTCQASQGTSINLNWFQQKPGKAPKLLIYGSSNLEDGVPSRFSGSRYGTDFTLTISSLEDEDLATYFCLQHSYLPYTFGGGTKLEIKRTVAAPDIVMTQSHKFMSTTVGDRVSITCKASQAVSSAVAWYQQKPGQSPKLLIYWASTRHTGVPDRFTGSGSVTDFTLTIHNLQAEDLALYYCQQHYSTPFTFGSGTKLEIKRTVAAPSVFIFPPSDEQLKSGTASVVCLLNNFYPREAKVQWKVDNALQSGNSQESVTEQDSKDSTYSLSSTLTLSKADYEKHKVYACEVTHQGLSSPVTKSFNRGEC
With B10, the “TNFα Neutralization Assay EC50” value in assay [1] was found to be 0.085 nM.

B11: DVD1522 (bispecific antibody, human IgG1, kappa)
heavy: not shown
light: DVVMTQTPLSLPVSLGDQASISCTSGQSLVHINGNTYLHWYLQKPGQSPKLLIYKVSNLFSGVPDRFSGSGSGTDFTLKISRVEAEDLGVYFCSQSTHFPFTFGTGTKLEIKRTVAAPDIQMTQSPSSLSASVGDRVTITCRASQGIRIDLGWYQQKPGKAPKRLIYAASTLQSGVPSRFSGSGSGTEFIFTISSLQPEDFASYYCLQHKSYPLTFGGGTKVEIKRTVAAPSVFIFPPSDEQLKSGTASVVCLLNNFYPREAKVQWKVDNALQSGNSQESVTEQDSKDSTYSLSSTLTLSKADYEKHKVYACEVTHQGLSSPVTKSFNRGEC
With B11, in assay [1], the “TNFα Neutralization Assay EC50” value was determined as 4.18 nM.

B12: DVD1474 (bispecific antibody, human IgG1, kappa)
heavy: not shown
light: DVLMTQTPLSLPVTPGEPASISCTSSQNIVHSNGNTYLEWYLQKPGQSPQLLIYKVSNRFSGVPDRFSGSGSGTDFTLKISRVEAEDVGVYYCFQVSHVPYTFGGGTKVEIKRTVAAPSVFIFPPDIQMTQSPSSLSASVGDRVTITCRASQGIRIDLGWYQQKPGKAPKRLIYAASTLQSGVPSRFSGSGSGTEFIFTISSLQPEDFASYYCLQHKSYPLTFGGGTKVEIKRTVAAPSVFIFPPSDEQLKSGTASVVCLLNNFYPREAKVQWKVDNALQSGNSQESVTEQDSKDSTYSLSSTLTLSKADYEKHKVYACEVTHQGLSSPVTKSFNRGEC
As for B12, the “TNFα Neutralization Assay EC50” value in assay [1] stood at 0.273 nM.
